This is an account of results in patent US20230399408A1 (AB THERAPEUTICS, published 2023).

The target of assay [1] is cMET (UniProt P08581). In words: BLI (Probelife).
The target of assay [2] is EGFR mutant C797S on BaF3 cells (UniProt P00533). In words: flow cytometry on EGFR mutant C797S-BaF3 cells, goat anti-human Fc-FITC. For orientation: In flow cytometry, cells or beads pass a laser one at a time.
Assay [3] deals with c-MET-His tag protein (human) (UniProt P08581). In words: titration ELISA, c-MET-His coated. In general terms: In an ELISA, binding on a coated surface is turned into a signal by an enzyme label.
Assay [4] addresses cMET (UniProt P08581). In words: separate experiment, method not restated (BLI in this example), cMET binding.
For assay [5], the target named is EGFR (UniProt P00533). As to the kind of experiment: separate experiment, method not restated (BLI in this example), EGFR binding.
Assay [6] deals with EGFR on NCI-H1975 cells (human) (UniProt P00533). In words: flow cytometry on H1975 cells, dilutions 2.04e-4 to 400 nM, goat anti-human Fc-FITC; whole-cell binding, the cells also carry cMET.
Assay [7] shares this target. In words: flow cytometry on H1975.HGF cells, goat anti-human Fc-FITC; fit value of a flat control curve; the drawn table is identical to that of FIG. 23B.
Assay [8] has the same target. In words: flow cytometry on H1975 cells, dilutions 2.04e-4 to 400 nM, goat anti-human Fc-FITC; fit value of a flat control curve, beyond the tested range.
The target in assay [9] is EGFR mutant C797S on BaF3 cells (UniProt P00533). In words: flow cytometry competition on EGFR mutant C797S-BaF3 cells, streptavidin-PE; blocked ligand biotinylated EGF; fit value of a flat control curve.
Assay [10] addresses EGFR on NCI-H1975 cells (human) (UniProt P00533). In words: flow cytometry competition on H1975.HGF cells, streptavidin-PE; blocked ligand biotinylated EGF; fit value of a control curve that rises instead of falling.
Assay [11] deals with cMET on NCI-H1975 cells (human) (UniProt P08581). As to the kind of experiment: flow cytometry competition on H1975 cells, streptavidin-PE; blocked ligand biotinylated HGF; fit value of a nearly flat control curve (about 6500 to 6200).
For assay [12] the target is unchanged. As to the kind of experiment: flow cytometry competition on H1975.HGF cells, streptavidin-PE; ligand biotinylated HGF; fit value of a nearly flat control curve.
Assay [13] has as its target EGFR mutant C797S on BaF3 cells (UniProt P00533). In words: flow cytometry on EGFR mutant C797S-BaF3 cells, goat anti-human Fc-FITC; fit value of a flat control curve; the drawn table is identical to that of FIG. 23C.
Assay [14] addresses T1, human cMET (human, UniProt P08581 25-932).
T1 construct: Coated antigen of the cross-reactivity ELISA; also called human antigen; anti-Hu
In words: binding ELISA, plate coated with human cMET at 1 ug/mL, clone at 10 ug/mL, biotinylated anti-c-Myc 9E-10 and streptavidin detection.
Experimental: A high binding ELISA plate was coated with 1 μg/mL (diluted in 1×PBS) human or monkey antigens and kept at 4° C. overnight. On the next day, the plate was blocked with a blocking buffer (4% non-fat milk in 1×PBS) for 1 hour at 37° C. After blocking, the plate was washed three times with PBST. The antibody samples to be tested were diluted in PBS and then added to the corresponding wells (10 μg/mL). The plate was incubated at 37° C. at RT for 1 hour. After the incubation, the plate was washed three times with the PBST. Next, a secondary antibody (biotinylated anti-c-Myc antibody 9E-10, diluted at 1:500) was added to the wells and the plate was incubated at 37° C. at RT for 1 hour. The plate was then washed three times with PBST. Afterwards, streptavidin-RP, diluted at 1:1000, was added to each well and then the plate was incubated at 37° C. at RT for 1 hour. After the incubation, the plate was washed four times with PBST. After washing, the plate was developed by adding the Amplex reagent substrate and then the luminescent signal was measured at 530 nm and 590 nm in a SpectraMax plate reader.

Assay [15] addresses T2, c-MET-His tag protein (human, UniProt P08581 25-932).
T2 construct: also called cMET-HIS tagged; not shown: His tag
As to the kind of experiment: BLI (Probelife Gator), cMET-His on HIS probe saturated with 1H1-cMET-VHH-Fc, second antibody at 5 ug/ml. Here is the method: Briefly, a baseline was established using HIS probes in Quantitation (Q) buffer (a phosphate buffered saline solution with bovine serum albumin to decrease non-specific and background signal). The antigen (cMET-HIS tagged) to the HIS probe was added in 5 μg/ml cMET solution in Q buffer. HIS probes in Q buffer were used to return to the baseline. […] Finally, the secondary antibody was associated through HIS Probes in 5 μg/ml of antibody diluted in Q buffer.

Chain of cMET (P08581 25-932): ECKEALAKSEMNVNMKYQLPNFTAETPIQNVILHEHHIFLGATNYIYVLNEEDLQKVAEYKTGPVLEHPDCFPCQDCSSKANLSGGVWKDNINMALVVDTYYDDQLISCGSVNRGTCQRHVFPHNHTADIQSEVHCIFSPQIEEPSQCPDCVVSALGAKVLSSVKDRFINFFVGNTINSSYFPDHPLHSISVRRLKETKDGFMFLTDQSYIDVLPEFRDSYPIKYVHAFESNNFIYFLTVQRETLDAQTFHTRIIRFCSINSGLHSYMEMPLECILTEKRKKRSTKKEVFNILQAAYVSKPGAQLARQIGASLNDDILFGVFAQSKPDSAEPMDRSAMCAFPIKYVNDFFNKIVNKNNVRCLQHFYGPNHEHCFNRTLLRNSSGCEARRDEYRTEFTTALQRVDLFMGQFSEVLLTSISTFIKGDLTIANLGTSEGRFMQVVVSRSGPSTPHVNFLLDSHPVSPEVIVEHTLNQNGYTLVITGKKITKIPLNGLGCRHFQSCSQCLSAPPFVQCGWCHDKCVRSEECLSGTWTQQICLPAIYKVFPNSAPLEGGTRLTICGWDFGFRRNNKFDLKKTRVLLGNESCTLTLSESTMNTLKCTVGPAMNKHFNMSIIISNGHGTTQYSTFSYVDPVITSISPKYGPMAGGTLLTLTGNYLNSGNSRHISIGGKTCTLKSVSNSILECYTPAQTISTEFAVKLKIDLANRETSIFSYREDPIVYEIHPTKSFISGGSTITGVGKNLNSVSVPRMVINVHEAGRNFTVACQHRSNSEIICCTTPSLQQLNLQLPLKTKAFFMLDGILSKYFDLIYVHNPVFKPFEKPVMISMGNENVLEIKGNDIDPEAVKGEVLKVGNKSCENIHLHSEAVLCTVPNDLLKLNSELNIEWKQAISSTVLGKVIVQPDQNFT
Chain of cMET on NCI-H1975 cells (human) (P08581 25-1390): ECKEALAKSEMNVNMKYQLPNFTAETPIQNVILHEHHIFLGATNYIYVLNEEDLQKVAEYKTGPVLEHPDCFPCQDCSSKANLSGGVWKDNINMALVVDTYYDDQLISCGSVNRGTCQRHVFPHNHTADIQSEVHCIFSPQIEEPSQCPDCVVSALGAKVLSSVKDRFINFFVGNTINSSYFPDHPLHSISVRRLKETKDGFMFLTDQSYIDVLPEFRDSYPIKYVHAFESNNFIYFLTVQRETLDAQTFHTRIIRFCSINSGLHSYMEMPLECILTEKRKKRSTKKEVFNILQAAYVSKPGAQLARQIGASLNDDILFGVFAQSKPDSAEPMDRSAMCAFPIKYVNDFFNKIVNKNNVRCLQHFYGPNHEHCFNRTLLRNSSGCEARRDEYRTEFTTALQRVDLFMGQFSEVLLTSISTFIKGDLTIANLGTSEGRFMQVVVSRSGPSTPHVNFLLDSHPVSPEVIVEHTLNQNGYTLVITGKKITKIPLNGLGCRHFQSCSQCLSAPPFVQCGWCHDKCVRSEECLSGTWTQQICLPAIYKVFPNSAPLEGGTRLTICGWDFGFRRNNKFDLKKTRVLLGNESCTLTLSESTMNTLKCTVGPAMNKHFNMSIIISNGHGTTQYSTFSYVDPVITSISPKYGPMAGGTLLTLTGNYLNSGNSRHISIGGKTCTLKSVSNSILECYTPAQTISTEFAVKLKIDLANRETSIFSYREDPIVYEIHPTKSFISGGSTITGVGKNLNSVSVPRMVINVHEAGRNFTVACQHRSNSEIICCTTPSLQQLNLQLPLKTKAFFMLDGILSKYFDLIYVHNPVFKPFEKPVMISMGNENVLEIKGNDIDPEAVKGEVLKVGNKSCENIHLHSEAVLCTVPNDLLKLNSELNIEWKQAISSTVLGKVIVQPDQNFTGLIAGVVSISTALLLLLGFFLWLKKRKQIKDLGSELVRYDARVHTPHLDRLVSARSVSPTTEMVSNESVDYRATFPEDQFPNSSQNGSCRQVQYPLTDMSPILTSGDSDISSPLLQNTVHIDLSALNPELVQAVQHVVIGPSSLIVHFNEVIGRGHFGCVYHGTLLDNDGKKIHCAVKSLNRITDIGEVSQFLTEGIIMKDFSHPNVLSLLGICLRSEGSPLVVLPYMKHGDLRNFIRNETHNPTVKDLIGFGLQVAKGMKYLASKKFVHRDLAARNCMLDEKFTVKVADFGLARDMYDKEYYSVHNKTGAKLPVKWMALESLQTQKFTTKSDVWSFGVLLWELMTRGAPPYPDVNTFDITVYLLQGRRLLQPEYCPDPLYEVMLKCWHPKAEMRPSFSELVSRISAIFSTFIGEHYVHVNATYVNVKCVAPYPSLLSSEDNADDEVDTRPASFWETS
Chain of c-MET-His tag protein (human) (P08581 25-932 limits assumed): as the sequence (P08581 25-932) above
T1 sequence (P08581 25-932): as above
T2 sequence (P08581 25-932 limits assumed): as the sequence (P08581 25-932) above

Turning to JNJ372 analog (bispecific antibody), the values for the Kd in assay [1], in assay [4] and in assay [5] were 0.405 nM, 0.432 nM and 0.689 nM, respectively. This molecule also displayed an EC50 (read off the curve) in assay [2] of 3 nM. For the same molecule, the EC50 in assay [3] worked out at 4.89 ng/mL; in [6] it was 0.46 nM.

Turning to Neg.control (antibody), the EC50 in assay [7] was found to be 26.4 nM; in [8], 11100 nM; in assay [9], 0.0262 nM; in [10], 26.4 nM; in assay [11], 0.112 nM; in assay [12], 1.08 nM. In assay [13], the EC50 turned out to be 0.0262 nM.

B1: 1A12 (VHH)
VHH: QVQLVESGGGLVQPGGSLRLSCAASGFTFNSYWMYWVRLAPGKGIEWVSATDTRGQNTYYTDSVKGRFTISRDNAKNMVSLQMNNLKSEDTAVYYCALGNRWGTFPNRGPGTLVTVSS
notes: it is not the VHH-Fc fusion m11; also called cMET-1A12; clone 1A12
Regarding B1, the binding result in [14] is reported as “binds”.

B2: cMET-1A12 VHH-Fc (Fc fusion)
chain: B1 VHH
notes: not shown: hinge and Fc of the VHH-Fc
Consider B2, for which the binding result in [15] is given as “binds”.

The Kd is the concentration at which binding is half-saturated. Read a high Kd as weaker binding. What is called EC50 (read off the curve) is the midpoint of the concentration-response curve. Low values mean an effect from little substance, high ones a need for much substance. One may read the EC50 as the concentration that produces a half-maximal response.
